Data reported in the nanobody polyreactivity screen of Harvey et al. (2022).

Test: yeast display, Sf9 membrane polyspecificity reagent, FACS + sequencing; frameworks hold sequencing errors
In short: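 Sorting gates, low and high (top ~1%), were placed on anti-HA fluorescence to track expression and on streptavidin fluorescence to track reagent binding. A clone's polyreactivity label is taken from the gate it came out of. The reagent was 10% biotinylated, detergent-solubilized Sf9 membrane, applied for 1 hour at 4 °C to galactose-induced yeast display cells.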
For “QVQLVESGGGLVQAGGSLRLSCAASGRIFFYNVMGWYRQAPGKERELVAAITTIGGSTYYADSVKGRFTISRDNAKNTVYLQMNTLKPEDTAVYYCAAGWVTNSDGMDYWGQGTQVTVSS”, the “polyreactivity (PSR sort gate)” value was “low polyreactivity”. In the case of “QVQLVESGGGLVQAGGSLRLSCAASGRIFFYYAMGWYRQAPGTERELVAAITSGGNTNYADSVKGRFTISRDNAKNTVYLQMNSLKPEDTAVYYCAVDSWEYWRRGIYYYRFYYWGQGTQVTVSS”, the “polyreactivity (PSR sort gate)” value is reported as “low polyreactivity”. With “QVQLVESGGGLVQAGGSLRLSCAASGRIFGANAMGWYRQAPGKERELVAAISRTGGSTYYADSVKGRFTISRDNAKNTVYLQMNSLKPEDTAVYYCNAVYRYAHPMEYWGQGTQVTVSS” the “polyreactivity (PSR sort gate)” value was “high polyreactivity”. With “QVQLVESGGGLVQAGGSLRLSCAASGRIFGANAMGWYRQAPGKERELVAVITGGGGTYYADSVKGRFTISRDNSKNTVYLQINSLKPEDTAVYYCDWPRYYYTYPSHPMDYWGQGTQVTVSS” the “polyreactivity (PSR sort gate)” value was “low polyreactivity”. In the case of “QVQLVESGGGLVQAGGSLRLSCAASGRIFGAYAMGWYRPAPGKERELVAAITSRGSTNYADSVKGRFTISRDHAKNTVYLQMNSLNPEDTAVYYCARRAVYSKRRYDYWGQGTQVTVSS”, the “polyreactivity (PSR sort gate)” value is reported as “low polyreactivity”. With “QVQLVESGGGLVQAGGSLRLSCAASGRIFGAYAMGWYRQATGKERELVAAIRWSGARTYYADSVKGRFTISRDNAKNTVYLQMNSLKPEDTAVYYCATRQAYRPLKFDYWGQGTQVTVSS” the “polyreactivity (PSR sort gate)” value was “high polyreactivity”. For “QVQLVESGGGLVQAGGSLRLSCAASGRIFGAYARGWYRQAPGKERELVAAITSAGSTHYADSVKGRFTISRDNAKNTVYLQMNSLKPEDTAVYYCAADGIARAYVLFDAYDFLYDYWGQGTQVSVSS”, the “polyreactivity (PSR sort gate)” value was “low polyreactivity”. With “QVQLVESGGGLVQAGGSLRLSCAASGRIFGAYTMGWYRQAPGKERELVAAISWSGGRTYYADSVKGRFTISRDNAKNTVYLQMNSVKPEDTAVYYCAASYSGRQDRYPHYDYWGQGTQVTVSS” the “polyreactivity (PSR sort gate)” value was “low polyreactivity”. With “QVQLVESGGGLVQAGGSLRLSCAASGRIFGDNAMGWYRQAPGKERELVATISRGGTTNYADSVKGRFTISRDNAKNTVYLQMNSLKPEDTAVYYCNARSGGHGYSRYQTYLRYDYWGQGTQVTVSS” the “polyreactivity (PSR sort gate)” value was “low polyreactivity”. For “QVQLVESGGGLVQAGGSLRLSCAASGRIFGDYAMGWYRQAPGKERELVAAINSSGTSTNYADSVKGRFTISRDNAKNTVYLQMNSLKPEDTAVYYCNAEGTYRPDYDSWGQGTQVTVSS”, the “polyreactivity (PSR sort gate)” value was “low polyreactivity”. With “QVQLVESGGGLVQAGGSLRLSCAASGRIFGDYAMGWYRQAPGKERELVAAISWSDGSTYYADSVKGRFTISRDNAKNTVYLQMNSLKPEDTAVYYCAAYGWGYRYVDVVVSDFYYWGQGTQVTVSS” the “polyreactivity (PSR sort gate)” value was “low polyreactivity”. In the case of “QVQLVESGGGLVQAGGSLRLSCAASGRIFGFNAMGWYRQAPGKERELVAGITDSSGRTNYADSVKGRFTISRDNAKNTVYLQMNSLKPEDTAVYYCAKDGLVIPADGSDYWGQGTQVTVSS”, the “polyreactivity (PSR sort gate)” value is reported as “low polyreactivity”. In the case of “QVQLVESGGGLVQAGGSLRLSCAASGRIFGFNTMGWYRQAPGKERELVAAITSRDGRTYYADSVKGRFTISRDNAKNTVYLQMNSLKPEDTAVYYCATQYRWYAESHGLVTSVIMYSWGQGTQVTVSS”, the “polyreactivity (PSR sort gate)” value is reported as “low polyreactivity”. With “QVQLVESGGGLVQAGGSLRLSCAASGRIFGFYALGWYRQAPGKERELVAAITVSGSSTRYADSVKGRFTISRDNAKNTVYLQMNSLKPDDTAVYYCAASVGQFRYRYKWTFGNARMYYWGQGTQVTVSS” the “polyreactivity (PSR sort gate)” value was “high polyreactivity”. For “QVQLVESGGGLVQAGGSLRLSCAASGRIFGFYAMGWYRQAPGKERELVAVITYRDGRTYYADSVKGRFTISRDNAKNTVYLQMNSLKPQDTAVYYCAADRGVYDPGDYWGQGTQVTVSS”, the “polyreactivity (PSR sort gate)” value was “low polyreactivity”. With “QVQLVESGGGLVQAGGSLRLSCAASGRIFGFYGMGWYRQAPGKERELVAAITNRVGSTYYADSVKGRFTISRDNAKNTVYLHMHSLKPEDTAVYSCARRSGWWTRMDSWGQGTQVTVSS” the “polyreactivity (PSR sort gate)” value was “high polyreactivity”. With “QVQLVESGGGLVQAGGSLRLSCAASGRIFGGNALGWYRQAPGYARALVAAISWIGGTTYYADSVKGRFTISRDNAKNTVYLQMNSLKPEDTAVYYCAAYRYRPHVHRYYRYDYWGQGTQVTVSS” the “polyreactivity (PSR sort gate)” value was “high polyreactivity”. In the case of “QVQLVESGGGLVQAGGSLRLSCAASGRIFGGNTMGWYRQAPGKEREFVAAITQSGTRTYYADSVKGRFTISRDNAKNTVYLQMNSLKPEDTAVYYCAAEGYWYPYDYWGQGTQVTVSS”, the “polyreactivity (PSR sort gate)” value is reported as “high polyreactivity”. In the case of “QVQLVESGGGLVQAGGSLRLSCAASGRIFGGNTMGWYRQAPGKEREFVAAITQSGTRTYYADSVKGRFTISRDNAKNTVYLQRNSLKPEDTAVDYCAAEGYWYPYDYWRQGTQVTVSS”, the “polyreactivity (PSR sort gate)” value is reported as “high polyreactivity”. In the case of “QVQLVESGGGLVQAGGSLRLSCAASGRIFGGYAMGGDRQAPGKERELVAVISGRGGSTYYADSVKGRFTISRDNAKNTVYLQMNSLKPEDTAVYYCTVYRRIQRYGPQSYDYWGQGTQVTVSS”, the “polyreactivity (PSR sort gate)” value is reported as “high polyreactivity”. In the case of “QVQLVESGGGLVQAGGSLRLSCAASGRIFGGYAMGWYRPAPGKERELVAAISWRGGTTYYADSVKGRFTISRDNAKNTVYLQMNSLKPEDTAVYYCNADVVRYRHWHRGDYWGQGTQVTVSS”, the “polyreactivity (PSR sort gate)” value is reported as “low polyreactivity”. With “QVQLVESGGGLVQAGGSLRLSCAASGRIFGGYAMGWYRQAPGKERELVAAISSGGNTKYADSVKGRFTISRDNAKNTVYLQMNSLKPEDTAVYYCAAAPYARREYEYWGQVTQVTVSS” the “polyreactivity (PSR sort gate)” value was “high polyreactivity”. For “QVQLVESGGGLVQAGGSLRLSCAASGRIFGGYAMGWYRQAPGKERELVAAISSSGGRTYYADSVKGRFTISRDNSKKTVYLQMNSLKPEDTAVYYCNAGAGQRVSGHSFEDWGQGTQVTVSS”, the “polyreactivity (PSR sort gate)” value was “high polyreactivity”. In the case of “QVQLVESGGGLVQAGGSLRLSCAASGRIFGINAMGWYRQAPGKERELVAAINWSGGSTYYADSVKGRFTISRDNAKNTVYIQMNSLKPEDSAVYYCAAQKYKRVGYWGQGTQVTVSS”, the “polyreactivity (PSR sort gate)” value is reported as “high polyreactivity”. For “QVQLVESGGGLVQAGGSLRLSCAASGRIFGIYAMGGSRQAPGKERELVASITDGTITYYADSVKGRFTISRDNAKNTVYLQMNSLKPEDTAVYYCAAGTQAHAYVVRPIEMDYWGQGTQVTVSS”, the “polyreactivity (PSR sort gate)” value was “low polyreactivity”. With “QVQLVESGGGLVQAGGSLRLSCAASGRIFGIYAMGWYRQAPGKERELVARITGGGSTNYADSVKARFTISRDNEKNTVYLQMNSLKPEDTAVYYCASTVRRIVGNITRYDYWGQGTQLTVSS” the “polyreactivity (PSR sort gate)” value was “low polyreactivity”. In the case of “QVQLVESGGGLVQAGGSLRLSCAASGRIFGIYAMGWYRQAPGKERELVATITDSDDSTYYADSVKGRFTISRDNAKNTVYLQMNSLKPEDTAVYYCATAFSYGGGAYDYWGQGTQVTVSS”, the “polyreactivity (PSR sort gate)” value is reported as “low polyreactivity”. With “QVQLVESGGGLVQAGGSLRLSCAASGRIFGKNAMGWYRQAPGKERELVAAISSSGGSTYYADSVKGRFTISRDNAKNTVYLQMNSLKPEDTAVYYCAAGVTRGMDYWGQGTQVTVSS” the “polyreactivity (PSR sort gate)” value was “high polyreactivity”. In the case of “QVQLVESGGGLVQAGGSLRLSCAASGRIFGKNDMGWYRQAPGKETEFVATIDWSGGSTYYADSVKGRFTISRDNAKNTVYLQMNSLKPEDTAVYYCAASGWNRYLFDYWGQGTQVTVSS”, the “polyreactivity (PSR sort gate)” value is reported as “low polyreactivity”. In the case of “QVQLVESGGGLVQAGGSLRLSCAASGRIFGLNAMGWYRQAPGKEREFVAAIRWRGGSTYYADSVKGRFTISRDNAKNTVYLQMNSLKPEDTAVYYCAADRNLGVSRYGYWGQGTQVTVSS”, the “polyreactivity (PSR sort gate)” value is reported as “high polyreactivity”. For “QVQLVESGGGLVQAGGSLRLSCAASGRIFGLNGMGWSRQAPGKERELVARISSVGSTYSADSVKGRFTISRDNAKNTVDLQKNSLTPEDTSVYYCNRRRSRYLPTPDRIVEYDYWGQGTQVTVSS”, the “polyreactivity (PSR sort gate)” value was “low polyreactivity”.
